For this data set, the target named is GLI3 (His-tagged; probably zinc-finger fragment) (UniProt P10071 480-632). Briefly: EMSA; dose-dependent shift; 5 mM MgCl2; EMSA: 20 mM Tris-HCl pH 7.5, 50 mM NaCl, 5 mM MgCl2, 0.2 mM EDTA, 1 mM DTT, 1 h at room temperature; 6% native PAGE. The conditions noted are these: protein: recombinant; tags: His; label: biotin; blunt.
Sequence of GLI3 (His-tagged; probably zinc-finger fragment) (P10071 480-632): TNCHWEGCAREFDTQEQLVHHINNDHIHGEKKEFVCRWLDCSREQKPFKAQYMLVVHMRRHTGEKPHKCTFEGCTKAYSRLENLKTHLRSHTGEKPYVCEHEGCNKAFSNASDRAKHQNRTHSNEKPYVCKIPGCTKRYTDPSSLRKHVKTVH

B1: rs72856331-G (dsDNA)
DNA 1: CCCCAAGCAGGGGGTGGCCCCTGAG
DNA 2: CTCAGGGGCCACCCCCTGCTTGGGG
Regarding B1, the binding result is on record as “binds”.

Source of the values: paper PMC11996917, “An inherited predisposition allele promotes gastric cancer via enhancing deubiquitination-mediated activation of epithelial-to-mesenchymal transition signaling”.
